Paper PMC3901395, “Multivalent interactions of the SUMO-interaction motifs in RING finger protein 4 determine the specificity for chains of the SUMO” (Biochemical Journal, 2013)
Substitutions are numbered along the chain they refer to.

B1: RNF4 1–125 (RNF4-SIM domain, wt), P78317 SIM3/4mut (protein)
chain: MSTRKRRGGAINSRQAQKRTREATSTPEISLEAEPIELVETAGDEIVDLTCESLEPVVAAAAHNDSAAAADERRRPRRNARRLPQDHADSCVVSSDDEELSRDRDVYVTTHTPRNARDEGATGLR
B2: RNF4 1–125 (RNF4-SIM domain, wt), P78317 SIM3mut (protein)
chain: B1 chain with A67V, A68V, A69I, A70V
B3: RNF4 1–125 (RNF4-SIM domain, wt), P78317 SIM2mut (protein)
chain: MSTRKRRGGAINSRQAQKRTREATSTPEISLEAEPIELVETAGDEIAAAACESLEPVVVDLTHNDSVVIVDERRRPRRNARRLPQDHADSCVVSSDDEELSRDRDVYVTTHTPRNARDEGATGLR
B4: RNF4 1–125 (RNF4-SIM domain, wt), P78317 SIM2/3mut (protein)
chain: B3 chain with V59A, D60A, L61A, T62A
B5: RNF4 1–125 (RNF4-SIM domain, wt), P78317 SIM1/3mut (protein)
chain: B1 chain with I36A, E37A, L38A, V39A, A67V, A68V, A69I, A70V
B6: RNF4 1–125 (RNF4-SIM domain, wt), P78317 SIM1/2mut (protein)
chain: B3 chain with I36A, E37A, L38A, V39A
B7: RNF4 1–125 (RNF4-SIM domain, wt), P78317 SIM2/4mut (protein)
chain: B3 chain with V67A, V68A, I69A, V70A
B8: RNF4 1–125 (RNF4-SIM domain, wt), P78317 SIM4mut (protein)
chain: B1 chain with A59V, A60D, A61L, A62T
B9: RNF4 1–125 (RNF4-SIM domain, wt), P78317 SIM1/4mut (protein)
chain: B1 chain with I36A, E37A, L38A, V39A, A59V, A60D, A61L, A62T

Biological target: linear di-SUMO2 (2×SUMO2-ΔN11), P61956
Test: ITC (calorimetric titration)
Conditions: chain shown with the change

Chain of linear di-SUMO2 (2×SUMO2-ΔN11), P61956 (P61956 other isoform, or with tags, fused parts or gaps mutant): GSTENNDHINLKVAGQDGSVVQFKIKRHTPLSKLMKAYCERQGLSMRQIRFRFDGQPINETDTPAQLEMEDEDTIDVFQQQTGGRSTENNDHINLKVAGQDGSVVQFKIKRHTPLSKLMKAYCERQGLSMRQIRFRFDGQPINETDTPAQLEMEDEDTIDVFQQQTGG

Row | Binder | Kd [µM]
1 | B1 | 69
2 | B2 | 91
3 | B3 | 118
4 | B4 | 110
5 | B5 | 52
6 | B6 | 56
7 | B7 | 69

Biological target: linear tetra-SUMO2 (4×SUMO2-ΔN11), P61956
Test: ITC (calorimetric titration)
Conditions: chain shown with the change

Chain of linear tetra-SUMO2 (4×SUMO2-ΔN11), P61956 (P61956 other isoform, or with tags, fused parts or gaps mutant): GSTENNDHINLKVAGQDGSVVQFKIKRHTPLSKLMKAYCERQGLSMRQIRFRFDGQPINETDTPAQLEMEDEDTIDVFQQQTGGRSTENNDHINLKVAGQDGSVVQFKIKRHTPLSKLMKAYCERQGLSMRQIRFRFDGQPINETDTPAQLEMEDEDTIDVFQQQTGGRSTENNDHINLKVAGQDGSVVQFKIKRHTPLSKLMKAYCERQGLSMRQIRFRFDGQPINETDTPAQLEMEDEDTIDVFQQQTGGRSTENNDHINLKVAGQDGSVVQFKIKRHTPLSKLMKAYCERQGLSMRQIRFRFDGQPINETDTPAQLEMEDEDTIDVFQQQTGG

Row | Binder | Kd [µM]
8 | B1 | 22
9 | B2 | 2.2
10 | B8 | 2.8
11 | B3 | 2.1
12 | B4 | 48
13 | B9 | 1.3
14 | B5 | 2.4
15 | B7 | 9.4

Biological target: linear tri-SUMO, P61956
Test: ITC (calorimetric titration)
Conditions: chain shown with the change

Chain of linear tri-SUMO, P61956 (P61956 other isoform, or with tags, fused parts or gaps): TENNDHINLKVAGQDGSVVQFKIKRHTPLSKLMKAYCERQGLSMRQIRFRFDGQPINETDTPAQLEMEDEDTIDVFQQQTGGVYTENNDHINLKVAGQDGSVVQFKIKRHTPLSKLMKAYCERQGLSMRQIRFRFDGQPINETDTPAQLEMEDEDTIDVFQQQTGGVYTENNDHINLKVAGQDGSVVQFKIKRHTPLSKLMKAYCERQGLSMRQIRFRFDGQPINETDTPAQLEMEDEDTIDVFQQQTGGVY

Row | Binder | Kd [µM]
16 | B2 | 29
17 | B8 | 20
18 | B3 | 25
